The values that follow come from patent US20120316071A1 (published 2012).

Where a chain is given by its changes, count along the chain named. Numbers in names are those of the source.

Assay [1] concerns the target T1, rHuman P-Cadherin/Fc Chimera, CF (R&D Systems Cat#861-PC) (human, UniProt P22223 108-654).
T1 construct: Bought reagent; Fc part of the bought chimera not given
Kind of assay: ECL (MSD) multispot binding assay, antigen spotted on plate, 20 nM Fab.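 Further: purified Fab incubated 1 h at 20 °C on antigen-spotted plate, bound Fab revealed with TAG detection antibody, ECL read, antigen signal divided by same-well blank, ratio ≥4 counted as hit.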

In assay [2] the target is T2, rHuman Notch-1/Fc Chimera, CF (R&D Systems Cat#3647-TK) (human, UniProt P46531 19-526).
T2 construct: Bought reagent; Fc part of the bought chimera not given
The assay is described as above.

Assay [3] addresses T3, rHuman EGF R/Fc Chimera, CF (R&D Systems Cat#344-ER) (human, UniProt P00533 25-645).
T3 construct: Bought reagent; also called epidermal growth factor receptor; Fc part of the bought chimera not given
The assay is described as above.

Assay [4] deals with T4, rHuman HGF R/c-MET/Fc Chimera, CF (R&D Systems Cat#358-MT/CF) (human, UniProt P08581 25-932).
T4 construct: Bought reagent; also called HGF R/Fc; hepatocyte growth factor receptor; Fc part of the bought chimera not given
T4 sequence (P08581 25-932, change not shown): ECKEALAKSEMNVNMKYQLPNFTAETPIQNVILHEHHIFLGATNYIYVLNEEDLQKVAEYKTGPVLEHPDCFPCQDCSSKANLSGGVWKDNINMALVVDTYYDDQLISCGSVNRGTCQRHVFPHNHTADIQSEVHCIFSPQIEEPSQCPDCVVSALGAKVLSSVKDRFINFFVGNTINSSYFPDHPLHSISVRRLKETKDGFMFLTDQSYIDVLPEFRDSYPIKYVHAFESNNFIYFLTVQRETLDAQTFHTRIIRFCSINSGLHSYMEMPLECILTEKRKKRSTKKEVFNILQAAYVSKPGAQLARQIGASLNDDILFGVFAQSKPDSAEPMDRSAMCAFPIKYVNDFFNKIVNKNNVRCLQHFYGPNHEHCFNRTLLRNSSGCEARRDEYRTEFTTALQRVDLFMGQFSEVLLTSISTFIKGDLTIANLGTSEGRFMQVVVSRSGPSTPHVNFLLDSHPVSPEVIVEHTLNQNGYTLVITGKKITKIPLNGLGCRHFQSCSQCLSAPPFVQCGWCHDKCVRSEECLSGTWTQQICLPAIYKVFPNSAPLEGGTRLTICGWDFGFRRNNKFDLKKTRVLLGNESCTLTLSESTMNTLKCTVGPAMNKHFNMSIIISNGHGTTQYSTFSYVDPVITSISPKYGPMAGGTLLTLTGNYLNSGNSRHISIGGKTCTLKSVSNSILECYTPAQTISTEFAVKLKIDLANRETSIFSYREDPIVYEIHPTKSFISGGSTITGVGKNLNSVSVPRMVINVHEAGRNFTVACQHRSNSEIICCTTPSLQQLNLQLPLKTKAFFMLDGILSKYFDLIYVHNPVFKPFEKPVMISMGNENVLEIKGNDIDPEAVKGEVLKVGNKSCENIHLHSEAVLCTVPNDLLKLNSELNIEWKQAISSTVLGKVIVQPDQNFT
The description is as above.

The target in assay [5] is T5, Recombinant Human DLL4 (R&D Systems Cat#1506-D4/CF) (human, UniProt Q9NR61 27-524).
T5 construct: Bought recombinant protein; also called delta-like protein 4; rHuman DLL4
The description is as above.

The target in assay [6] is T6, rHuman ErbB2/Fc Chimera, CF (R&D Systems Cat#1129-ER) (human, UniProt P04626 23-652).
T6 construct: Bought reagent; also called human epidermal growth factor 2 receptor; Fc part of the bought chimera not given
The description is as above.

In assay [7] the target is T7, rHuman IGF-1 sR, CF (R&D Systems Cat#391-GR) (human, UniProt P08069 31-932).
T7 construct: Bought soluble receptor; also called insulin-like growth factor-1 soluble receptor
The assay is described as above.

The target in assay [8] is T8, rHuman Erythropoietin R/Fc Chimera, CF (R&D Systems Cat#963-ER) (human, UniProt P19235 25-250).
T8 construct: Bought reagent; also called EPO R; EPO R/Fc; Fc part of the bought chimera not given
T8 sequence (looked up): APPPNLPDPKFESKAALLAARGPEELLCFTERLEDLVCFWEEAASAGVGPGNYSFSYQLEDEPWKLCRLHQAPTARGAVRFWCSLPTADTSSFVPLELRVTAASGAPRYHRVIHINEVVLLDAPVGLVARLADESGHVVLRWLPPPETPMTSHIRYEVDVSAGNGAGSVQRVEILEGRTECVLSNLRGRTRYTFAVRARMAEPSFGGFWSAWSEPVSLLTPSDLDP
The assay is described as above.

Assay [9] addresses T9, rHuman CD44/Fc Chimera, CF (R&D Systems Cat#3660-CD) (human, UniProt P16070 21-220).
T9 construct: Bought reagent; Fc part of the bought chimera not given
The description is as above.

Assay [10] has as its target T10, Recombinant Human DLL4 (R&D Systems Cat#1506-D4/CF) (human, UniProt Q9NR61 27-524).
T10 construct: bought recombinant protein; also called rHuman DLL4; delta-like protein 4
As to the kind of experiment: Multispot ECL.

Assay [11] addresses T11, Recombinant Human DLL4 (delta-like protein 4) (human, UniProt Q9NR61 27-524).
T11 construct: Bought recombinant protein; also called rHuman DLL4
As to the kind of experiment: ECL (MSD) binding assay, Fab on immobilised recombinant human DLL4.

Assay [12] has as its target T10, Recombinant Human DLL4 (R&D Systems …). Kind of assay: 96-well plate ECL.

B1: Fab VH3-23_IGHD2-21*01>3_IGHJ6*01 H100E/S108P/Y113G Y114P & V2-13_IGLJ2*01 (Fab, V domains shown)
VH: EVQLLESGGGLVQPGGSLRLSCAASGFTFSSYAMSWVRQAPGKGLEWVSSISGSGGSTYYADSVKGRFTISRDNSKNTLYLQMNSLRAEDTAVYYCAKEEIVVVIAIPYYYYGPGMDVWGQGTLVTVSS
VL: SSELTQDPAVSVALGQTVRITCQGDSLRSYYASWYQQKPGQAPVLVIYGKNNRPSGIPDRFSGSSSGNTASLTITGAQAEDEADYYCNSRDSSGNHLVVFGGGTKLTVL
notes: Tested as Fab made in E. coli (VH-CH1 with His and Flag tags; lambda CL); also called EPG Y114P
In the case of B1, the “ECL multispot value” in [1] amounted to 1.3; in assay [2], 1.4; in assay [3], 1.2; in assay [4], 2.7; in assay [5] it was 1.1; in assay [6], 1.4. Moreover, the figures for the “ECL multispot value” in [7], in assay [8] and in assay [9] were 0.9, 2.3 and 1.1, respectively.

B2: Fab VH3-23_IGHD2-21*01>3_IGHJ6*01 H100E/S108P/Y113G Y114T & V2-13_IGLJ2*01 (Fab, V domains shown)
VH: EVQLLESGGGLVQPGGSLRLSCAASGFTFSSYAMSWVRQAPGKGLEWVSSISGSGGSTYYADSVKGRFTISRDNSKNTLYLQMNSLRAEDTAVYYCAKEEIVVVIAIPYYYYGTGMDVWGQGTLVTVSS
VL: B1 VL
notes: Tested as Fab made in E. coli (VH-CH1 with His and Flag tags; lambda CL); also called EPG Y114T
Consider B2, for which the “ECL multispot value” was found to be 1.7 in assay [1]; 1.8 in [2]; 1.3 in assay [3]; 1.8 in assay [4]; 1.6 in assay [5]; 1.4 in assay [6]. Moreover, the “ECL multispot value” in assay [7] worked out at 1.1; in [8], 2; in assay [9] it was 1.1.

B3: Fab VH1-46_IGHD6-6*01_IGHJ1*01 & A27_IGKJ1*01 (Fab, V domains shown)
VH: QVQLVQSGAEVKKPGASVKVSCKASGYTFTSYYMHWVRQAPGQGLEWMGIINPSGGSTSYAQKFQGRVTMTRDTSTSTVYMELSSLRSEDTAVYYCAREEYSSSSAEYFQHWGQGTLVTVSS
VL: not shown
notes: Fab; also called non-Hit
As to B3, in [10], the binding result is listed as “no binding”.

B4: Fab VH1-46_IGHD6-6*01_IGHJ1*01 & A27_IGKJ1*01 (Fab, V domains shown)
VH: B3 VH
VL: not shown
notes: Germline Fab from the combinatorial library, with CH1 (plus His6 and Flag tags) and a kappa constant region from the expression plasmids
As for B4, the binding result in [11] was “no binding”.

B5: Fab VH1-46_IGHD6-6*01_IGHJ1*01 & L25_IGKJ1*01 (Fab, V domains shown)
VH: B3 VH
VL: EIVMTQSPATLSLSPGERATLSCRASQSVSSSYLSWYQQKPGQAPRLLIYGASTRATGIPARFSGSGSGTDFTLTISSLQPEDFAVYYCQQDYNLPPWTFGQGTKVEIKR
notes: as for B4
For the molecule B5, the binding result in assay [11] is reported as “no binding”.

B6: Fab VH1-46_IGHD6-6*01_IGHJ1*01 & L25_IGKJ1*01 (Fab, V domains shown)
VH: B3 VH
VL: B5 VL
notes: Fab; also called non-Hit
As for B6, the binding result in assay [10] is “no binding”.

B7: Fab VH5-51_IGHD5-18*01>3_IGHJ4*01 G100K & V3-4_IGLJ1*01 (Fab, V domains shown)
VH: EVQLVQSGAEVKKPGESLKISCKGSGYSFTSYWIGWVRQMPGKGLEWMGIIYPGDSDTRYSPSFQGQVTISADKSISTAYLQWSSLKASDTAMYYCARRKYSYGYDYFDYWGQGTLVTVSS
VL: QTVVTQEPSFSVSPGGTVTLTCGLSSGSVSTSYYPSWYQQTPGQAPRTLIYSTNTRSSGVPDRFSGSILGNKAALTITGAQADDESDYYCVLYMGSGISYVFGTGTKVTVL
notes: Fab
Take B7: the “fold ECL signal against the parent Fab” value in assay [12] is approximately 2 fold.

B8: Fab VH5-51_IGHD5-18*01>3_IGHJ4*01 G104T & V3-4_IGLJ1*01 (Fab, V domains shown)
VH: B7 VH with K100G, G104T
VL: B7 VL
notes: Fab
Regarding B8, in [12], the “fold ECL signal against the parent Fab” value was approximately 2 fold.
